Results on 7 molecules are retold here after patent US20210070875A1 (SHANGHAI PHARMAEXPLORER, published 2021).

This test has as its target T1, human C5aR (human, UniProt P21730 1-350).
T1 chain: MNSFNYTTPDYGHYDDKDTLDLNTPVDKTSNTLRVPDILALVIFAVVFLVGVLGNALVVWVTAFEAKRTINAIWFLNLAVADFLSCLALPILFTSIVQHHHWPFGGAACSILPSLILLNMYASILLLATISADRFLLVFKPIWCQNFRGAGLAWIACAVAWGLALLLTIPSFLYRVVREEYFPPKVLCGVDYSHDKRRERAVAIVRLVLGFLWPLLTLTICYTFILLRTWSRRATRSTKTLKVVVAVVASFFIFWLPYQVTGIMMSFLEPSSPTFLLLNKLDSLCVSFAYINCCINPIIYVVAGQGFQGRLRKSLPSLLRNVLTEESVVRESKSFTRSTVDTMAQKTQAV
The test can be described thus: cell-based or functional assay.
Also: test concentration or dose not given here.

B1: 46H2A11C7 (antibody, V domains shown)
VH: QVQLKQSGAELVKPGASVKISCRASGYTFTDYFINWVKQRPGQGLEWIGKIGPGSGNIYQNEKFKDKATLTTDTSSSTAYMQLSSLTSEDSAVYFCARWGIQRGWGQGTTLTVSS
VL: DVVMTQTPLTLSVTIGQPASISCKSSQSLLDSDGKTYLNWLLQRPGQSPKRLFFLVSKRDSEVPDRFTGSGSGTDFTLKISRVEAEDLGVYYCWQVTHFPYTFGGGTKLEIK
Consider B1, for which the “C5a-induced human neutrophil migration, Celltiter-Glo fluorescence intensity value, Parallel sample 1” value was determined as 1460 fluorescence intensity; the “C5a-induced human neutrophil migration, Celltiter-Glo fluorescence intensity value, Parallel sample 2” value stood at 1510 fluorescence intensity; the “C5a-induced human neutrophil migration, Celltiter-Glo fluorescence intensity value, Parallel sample 3” value was 1930 fluorescence intensity; the “C5a-induced human neutrophil migration, Celltiter-Glo fluorescence intensity value, Parallel sample 4” value turned out to be 2040 fluorescence intensity.

B2: 5F8E2C11 (antibody, V domains shown)
VH: QVQLRQSGPGLVQPSQSLSITCTVSGFSLTSYGVHWVRQSPGKGLEWLGVIWSGGSTDYNAAFISRLSISKDYSKSQIFLTMNSLQTDDTAIYYCARNSRLGNCFDYWGQGTTLTVSS
VL: DIVMSQSPSSLAVSAGEKVTMSCKSSQSLLNSRTRKNYLAWYQQKPGQSPKLLIYWASTRESGVPDRFTGSGSGTDFTLTISSVQAEDLAVYYCKQSYNLPAFGGGTKLEIK
On to B2, for which the “C5a-induced human neutrophil migration, Celltiter-Glo fluorescence intensity value, Parallel sample 1” value came to 575 fluorescence intensity; the “C5a-induced human neutrophil migration, Celltiter-Glo fluorescence intensity value, Parallel sample 2” value came out at 429 fluorescence intensity; the “C5a-induced human neutrophil migration, Celltiter-Glo fluorescence intensity value, Parallel sample 3” value turned out to be 400 fluorescence intensity; the “C5a-induced human neutrophil migration, Celltiter-Glo fluorescence intensity value, Parallel sample 4” value was found to be 313 fluorescence intensity.

B3: 9D5A12G7 (antibody, V domains shown)
VH: QVQLKQSGPGLVQPSQSLSITCTVSGFSLTSYGVHWVRQSPGKGLEWLGVIWSGGSTDYNAAFISRLSISKDNSKSQVFFKMNSLQADDTAIYYCARNGLLGNAMDYWGQGTSVTVSS
VL: DIVMSQSPSSLAVSAGEKVTMSCKSSQSLLSSRTRKNYLAWYQQKPGQSPKLLIYWASTRESGVPDRFTGSGSGTDFTLTISSVQTEDLAVYYCKQSYNLLTFGAGTTLELK
B3: the “C5a-induced human neutrophil migration, Celltiter-Glo fluorescence intensity value, Parallel sample 1” value was 175 fluorescence intensity; the “C5a-induced human neutrophil migration, Celltiter-Glo fluorescence intensity value, Parallel sample 2” value was 211 fluorescence intensity; the “C5a-induced human neutrophil migration, Celltiter-Glo fluorescence intensity value, Parallel sample 3” value stood at 575 fluorescence intensity; the “C5a-induced human neutrophil migration, Celltiter-Glo fluorescence intensity value, Parallel sample 4” value is 611 fluorescence intensity.

B4: 43E8F5B6 (antibody, V domains shown)
VH: EVQLQQSGPELVKPGASVKISCKASGYTFTDYYMSWMKQSHGKSLEWIGDINPNNGDNIYNQKFKGKATLTVDRSSSTAYMDLRSLTSEDSAVYYCARWYYYVSSFSYWYFDVWGTGTTVTVSS
VL: EIVLTQSPTTMAASPGEKITITCSATSSINSNYLHWYQQKPGFSPKLLIYRTSNLASGVPARFSGSGSGTSYSLTIGTMEAEDVATYYCQQGRTIPRTFGSGTKLEIK
On to B4, for which the “C5a-induced human neutrophil migration, Celltiter-Glo fluorescence intensity value, Parallel sample 1” value stood at 844 fluorescence intensity; the “C5a-induced human neutrophil migration, Celltiter-Glo fluorescence intensity value, Parallel sample 2” value stood at 808 fluorescence intensity; the “C5a-induced human neutrophil migration, Celltiter-Glo fluorescence intensity value, Parallel sample 3” value worked out at 706 fluorescence intensity; the “C5a-induced human neutrophil migration, Celltiter-Glo fluorescence intensity value, Parallel sample 4” value worked out at 757 fluorescence intensity.

B5: 42B5G7D1 (antibody, V domains shown)
VH: QVQLQQSGPELVKPGASVKISCKASGYVFSNSWMNWVKQRPGKGLEWIGRIDPGDGDTKYNGKFKGKATLTADKSSSTAYMQLSSLTSEDSAVYFCVRFYYGSNYVGYYFDYWGQGTTLTVSS
VL: DVLMTQTPLSLPVSLGDQASISCRSSQSIVQSNGNTYLEWYLQKPGQSPKLLIYKVSNRFSGVPDRFSGSGSGTDFTLKISRVEAEDLGVYYCFQGSLVPPTFGGGTKLEIK
Turning to B5, the “C5a-induced human neutrophil migration, Celltiter-Glo fluorescence intensity value, Parallel sample 1” value worked out at 1200 fluorescence intensity; the “C5a-induced human neutrophil migration, Celltiter-Glo fluorescence intensity value, Parallel sample 2” value turned out to be 1480 fluorescence intensity; the “C5a-induced human neutrophil migration, Celltiter-Glo fluorescence intensity value, Parallel sample 3” value worked out at 298 fluorescence intensity; the “C5a-induced human neutrophil migration, Celltiter-Glo fluorescence intensity value, Parallel sample 4” value stood at 335 fluorescence intensity.

B6: 2A12B2B2 (antibody, V domains shown)
VH: QVQLQQPGADLVKPGASVKMSCKASGYILTTYWITWVKQRPGQGLEWIGDIHPGSGSTKYNEKFKSKATLTVDTSSSTAYMQLTRLSSEDSAVYYCARRDYWGQGTTLTVSS
VL: DIQMTQTTSSLSASLGDKVTISCRASQDISNYLSWYQQKPDGTVKLLIYWISRLHSGVPSRFSGSGSGTDFSLTISNLEQEDIATYFCQQGNSLPPTFGGGTKLEVK
As to B6, the “C5a-induced human neutrophil migration, Celltiter-Glo fluorescence intensity value, Parallel sample 1” value stood at 670 fluorescence intensity; the “C5a-induced human neutrophil migration, Celltiter-Glo fluorescence intensity value, Parallel sample 2” value came out at 597 fluorescence intensity; the “C5a-induced human neutrophil migration, Celltiter-Glo fluorescence intensity value, Parallel sample 3” value is 233 fluorescence intensity; the “C5a-induced human neutrophil migration, Celltiter-Glo fluorescence intensity value, Parallel sample 4” value came out at 204 fluorescence intensity.

B7: 8B5D1A9 (antibody, V domains shown)
VH: QVQLKQSGAELVKPGASVKISCKTSGYIFTDYYINWMKQRPGQGLEWIGKIGPGSGTTFYNEKFKGKATLTADKSSTTLYMQLSSLTAEDSAVYFCTRRGYYSSSYFYWGQGTTLTVSS
VL: DIVMTQSPSSLSVSAGEKVIMSCKSSQSLLNSERQKNYLAWYQQKPGQSPKLLIYGASTRESGVPDRFTGSGSGTDFTLTISSVQAEDLAVYYCLNDHSYPLTFGAGTKLELK
For B7, the “C5a-induced human neutrophil migration, Celltiter-Glo fluorescence intensity value, Parallel sample 1” value is 655 fluorescence intensity; the “C5a-induced human neutrophil migration, Celltiter-Glo fluorescence intensity value, Parallel sample 2” value is 713 fluorescence intensity; the “C5a-induced human neutrophil migration, Celltiter-Glo fluorescence intensity value, Parallel sample 3” value stood at 706 fluorescence intensity; the “C5a-induced human neutrophil migration, Celltiter-Glo fluorescence intensity value, Parallel sample 4” value was determined as 750 fluorescence intensity.
